The text below walks through data of patent US20090088386A1 (KAGOSHIMA UNIVERSITY, published 2009).

In experiment [1] the target is T1, pepB7-C15 (pepD1-C5, C7, C20) peptide phage clone.
T1 construct: also called pepD1-C7; pepD1-C20; not shown: phage gene III protein of the Ph.D.-C7C library phage (New England Biolabs)
T1 peptide: CYGTKPWMC
Put plainly: biopanning on coated B7 scFv; no ELISA figure is given for B7.

The target of experiment [2] is T2, pepB6-L10 peptide phage clone (not fully specified (C-terminus)).
T2 construct: not shown: phage gene III protein of the Ph.D.-12 library phage (New England Biolabs)
T2 peptide: TSPILDVLTPPR
Put plainly: phage ELISA, scFv coated on plate, phage detected with anti-M13 antibody. In general terms: ELISA stands for enzyme-linked immunosorbent assay.

The target in experiment [3] is T3, pepB6-L1 peptide phage clone (not fully specified (C-terminus)).
T3 construct: not shown: phage gene III protein of the Ph.D.-12 library phage (New England Biolabs)
T3 peptide: GMLDIFAPIRHV
Described as above.

Experiment [4] has as its target T4, pepD1-C8 peptide phage clone.
T4 construct: not shown: phage gene III protein of the Ph.D.-C7C library phage (New England Biolabs)
T4 peptide: CFGRLPWMC
The description is as above.

In experiment [5] the target is T5, pepD1-L13 peptide phage clone.
T5 construct: not shown: phage gene III protein of the Ph.D.-12 library phage (New England Biolabs)
T5 peptide: GNTLLDTLVPLI
Described as above.

Experiment [6] deals with T6, pepD1-L7 peptide phage clone.
T6 construct: not shown: phage gene III protein of the Ph.D.-12 library phage (New England Biolabs)
T6 peptide: SILDILSPRLAE
The description is as above.

Experiment [7] has as its target T7, pepD1-L6 peptide phage clone.
T7 construct: not shown: phage gene III protein of the Ph.D.-12 library phage (New England Biolabs)
T7 peptide: SSIIDILLPPIY
Described as above.

Experiment [8] has as its target T1, pepB7-C15 (pepD1-C5, C7, C20) peptide …. The experiment is described as above.
Description: An ELISA plate was coated with scFv used as a template in the panning or with control scFv in an amount of 50 ng/40 μl/well (0.1 M NaHCO₃, pH 8.6) at 4° C. for 6 hours. Each well was blocked with 0.5% gelatin at 4° C. for 13 hours. Each well was washed with 0.2% PBST three times and then reacted at room temperature for 1 hour by the addition of the isolated peptide phage clone solution (approximately 1.6×10¹¹ virions/40 μl). After reaction with 40 μl of biotinylated anti-M13 monoclonal antibodies (diluted 1000 folds) and a streptavidin-alkaline phosphatase conjugate (diluted 1000 folds), bound phages were detected using substrate p-nitrophenyl phosphate.
The experiment was conducted according to the procedures described in the paragraph (5) ELISA. […] The experiment was conducted according to the procedures described in the paragraph (5) ELISA. […] The experiment was conducted according to the procedures described in the paragraph (5) ELISA.
Experiment [9] concerns the target T8, pepD1-C10 peptide phage clone.
T8 construct: not shown: phage gene III protein of the Ph.D.-C7C library phage (New England Biolabs)
T8 peptide: CFGSLPWMC
The experiment is described as above.

In experiment [10] the target is T9, pepD1-L5, L9 peptide phage clone.
T9 construct: also called pepD1-L9; not shown: phage gene III protein of the Ph.D.-12 library phage (New England Biolabs)
T9 peptide: GSPFLDLLAPAA
Described as above.

Experiment [11] addresses T10, pepD1-C18 peptide phage clone.
T10 construct: not shown: phage gene III protein of the Ph.D.-C7C library phage (New England Biolabs)
T10 peptide: CFGHEPWMC
Described as above.

In experiment [12] the target is T11, pepD1-C3 peptide phage clone.
T11 construct: not shown: phage gene III protein of the Ph.D.-C7C library phage (New England Biolabs)
T11 peptide: CQGHLPWMC
The description is as above.

Experiment [13] has as its target T12, pepD1-C2, C13 peptide phage clone.
T12 construct: also called pepD1-C13; not shown: phage gene III protein of the Ph.D.-C7C library phage (New England Biolabs)
T12 peptide: CYGTEPWMC
The description is as above.

The target in experiment [14] is T13, pepD1-L20 peptide phage clone.
T13 construct: not shown: phage gene III protein of the Ph.D.-12 library phage (New England Biolabs)
T13 peptide: NPLDFYAPSILP
The description is as above.

Experiment [15] concerns the target T14, pepD1-C11 peptide phage clone.
T14 construct: not shown: phage gene III protein of the Ph.D.-C7C library phage (New England Biolabs)
T14 peptide: CFGHKPWMC
The description is as above.

A further experiment addresses T15, amyloid β peptide 1-42 (UniProt P05067 672-713).
T15 construct: domain: Aβ1-42; In the precipitation experiment it stood as oligomer and fibers formed 1.5 hours after dissolution at 40 µM; also called Aβ1-42; Aβ oligomer
Put plainly: precipitation of Aβ oligomer and fibers with streptavidin-magnet beads, Western blot with anti-Aβ antibodies. Background: In western blotting, separated proteins are transferred to a membrane and probed.

Changes are numbered by the printed parent chain. No end group written: not given here.

T15 sequence (P05067 672-713 limits assumed): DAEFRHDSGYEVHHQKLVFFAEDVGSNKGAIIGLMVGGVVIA
Description for amyloid β peptide 1-42: Aβ1-42 was dissolved at a concentration of 40 μM in 20 mM phosphate buffer, pH 7.0. […] After reaction, an aliquot thereof was sampled as a sample before immunoprecipitation (“Before precipitation”), and the remaining sample was reacted with M-280 streptavidin-magnet beads (Dynal Biotech, Oslo, Norway) adjusted to 20 μg/μl on ice for 1 hour at a ratio of 1:1 by liquid volume (final concentration: Aβ [10 μM]/synthesized peptide [10 μM]/beads [10 μg/μl]). After reaction, the beads were precipitated using a magnet to obtain “Supernatant”. To the precipitated beads, PBS was added in a liquid volume equal to the collected supernatant to obtain “Pellet”. Each obtained sample was electrophoresed and subjected to Western blot analysis using anti-Aβ antibodies.
Aβ1-42 was dissolved at a concentration of 40 μM in 20 mM phosphate buffer, pH 7.0.

B1: B7 scFv (clone B7 described in WO 2005/105998) (scFv, V domains shown)
VH: QVQLVQSGGGLVQPGGSQRLSCAASGFGFSNYAVSWVRQAPGTGLEWVAGVNGGGQNTFYADSVKGRFTISRDNSKKTVYLQMNSLRVEDTAIYYCAKDGRFRNRRPDGFDTWGQGTLVTVSS
VL: SSELTQDPNVSVALGQTVRITCQGDTLRNNFPTWYQQKPGQAPVLVFYGKDNRPSGIPDRFSGSRSGTTASLVITGAQAQDEADYYCNSRDSGGHHLVFGGGTKLTVLG
notes: Human single-chain antibody
For the molecule B1, in experiment [1], the binding result is given as “binds”.

B2: B6 scFv (clone B6 described in WO 2005/105998) (scFv, V domains shown)
VH: QVQLVQSGGGVVQPGGSLRLSCAASGFTFSRYAMSWVRQAPGKGLEWVSAMSGSGDTTYYADSVKGRFTISRDNSKKTVYLQMNRLRVEDTAIYYCAKDGRFRNRRSDGFDTWGQGTLVTVSS
VL: SSELTQDPAVSVALGQTVRITCQGDSLRSYYASWYQQKPGQAPVLVIYGKDNRPSGIPDRFSGSSSGNAASLTITGAQAEDEADYYCNSRDTSGNHLVFGGGTKVTVLG
notes: Human single-chain antibody
As to B2, the binding result in experiment [2] and in experiment [3] was “binds” throughout.

B3: D1 scFv (clone D1 described in WO 2005/105998) (scFv, V domains shown)
VH: QVTLKESGGDLVKPGGSLRLSCAASGFTFRKYYMAWIRQAPGKGPEWLSTISNSGDIIDYADSVRGRFSISRDNAQKSLYLQMTSLRPDDSAIYYCAREYFFSFDVWGRGTLVTVSS
VL: B2 VL with V18I, D51N, N52K, F61I, S65R, A69T, T92S, K104Q, V105L
notes: Human single-chain antibody
As for B3, the binding result in experiment [4], in experiment [5], in experiment [6], in experiment [7], in experiment [8] and in experiment [9] was “binds” throughout. The binding result in experiment [10], in experiment [11], in [12], in [13], in experiment [14] and in experiment [15] was “binds” in each case.

B4: unrelated control peptide (GSGGGSCGYWRSEWGLCG) (peptide)
peptide: GSGGGSCGYWRSEWGLCG
notes: also called unrelated peptide
B4: the binding result with amyloid β peptide 1-42 is listed as “no binding”.
